Experimental findings from paper PMC9396398, “Crystal structure of Ankyrin-G in complex with a fragment of Neurofascin reveals binding mechanisms required for integrity of the axon initial segment” (The Journal of Biological Chemistry, 2022) are described below.

As a reminder, the Kd is the equilibrium constant for the complex coming apart. Read a low Kd as a tighter complex.

Changes are numbered by the printed parent chain.

One assay concerns the target T1, AnkG R1-24 R318A, Q351A (Rattus norvegicus).
T1 chain: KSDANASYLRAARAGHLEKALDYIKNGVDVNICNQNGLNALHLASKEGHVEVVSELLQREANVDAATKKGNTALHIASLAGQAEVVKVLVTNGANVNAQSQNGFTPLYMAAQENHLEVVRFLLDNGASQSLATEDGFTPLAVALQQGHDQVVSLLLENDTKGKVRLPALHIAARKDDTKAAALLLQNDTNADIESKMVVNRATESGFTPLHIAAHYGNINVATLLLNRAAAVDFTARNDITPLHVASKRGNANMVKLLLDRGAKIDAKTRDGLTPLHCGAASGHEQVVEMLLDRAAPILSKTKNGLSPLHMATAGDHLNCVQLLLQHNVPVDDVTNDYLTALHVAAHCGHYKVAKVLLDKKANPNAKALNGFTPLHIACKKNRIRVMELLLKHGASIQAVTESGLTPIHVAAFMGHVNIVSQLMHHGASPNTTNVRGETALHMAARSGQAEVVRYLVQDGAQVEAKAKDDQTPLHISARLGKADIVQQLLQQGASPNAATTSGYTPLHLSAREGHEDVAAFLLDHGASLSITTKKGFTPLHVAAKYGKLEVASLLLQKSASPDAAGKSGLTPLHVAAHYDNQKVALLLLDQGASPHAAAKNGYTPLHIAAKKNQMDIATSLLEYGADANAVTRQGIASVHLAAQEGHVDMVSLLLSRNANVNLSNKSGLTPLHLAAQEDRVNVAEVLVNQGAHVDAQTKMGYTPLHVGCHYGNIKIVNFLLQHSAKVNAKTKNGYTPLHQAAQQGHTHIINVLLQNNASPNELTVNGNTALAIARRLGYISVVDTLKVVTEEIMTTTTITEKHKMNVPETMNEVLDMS
The assay is described as follows: ITC.

The target in a further assay is AnkG R6-16 (UniProt O70511). The assay is described as follows: ITC; VP-ITC at 25 °C; 50 mM Tris, 100 mM NaCl, 1 mM EDTA, 1 mM DTT, pH 7.8; Nfasc proteins (200 μM) in the syringe, AnkG proteins (20 μM) in the cell; one-site binding model. (In general: Isothermal titration calorimetry measures the heat released or taken up as one component is titrated into another.)
Assay [1] has as its target T2, AnkG ANK repeats (residues 38-855, R1-24) (UniProt O70511 38-855).
T2 construct: Ankyrin-G (AnkG), ANK repeats R1-24, residues 38-855; In human Q12955 the same residues seem to stand 8 lower (I277 here = I269 there); Cloned into a modified pET32a vector; the tag is said to be removed only for the crystallisation proteins; also called AnkG R1-24; Ankyrin-G ankyrin repeats; source: E. coli BL21 (DE3), purified (Ni-NTA, size-exclusion chromatography)
T2 sequence (looked up): T1 chain with A281R, A314Q
The description is as above. As to conditions: both partners purified.

Assay [2] deals with T3, AnkG R8-16 (AnkG 275 to 571) (UniProt O70511 275-571).
T3 construct: Ankyrin-G (AnkG), ANK repeats 8-16, residues 275-571 (limits are told for the crystallisation construct); In the crystal it stood fused behind the Nfasc ABD; also called eighth to sixteenth ANK repeats; source: E. coli BL21 (DE3), purified (Ni-NTA, size-exclusion chromatography)
T3 sequence (looked up): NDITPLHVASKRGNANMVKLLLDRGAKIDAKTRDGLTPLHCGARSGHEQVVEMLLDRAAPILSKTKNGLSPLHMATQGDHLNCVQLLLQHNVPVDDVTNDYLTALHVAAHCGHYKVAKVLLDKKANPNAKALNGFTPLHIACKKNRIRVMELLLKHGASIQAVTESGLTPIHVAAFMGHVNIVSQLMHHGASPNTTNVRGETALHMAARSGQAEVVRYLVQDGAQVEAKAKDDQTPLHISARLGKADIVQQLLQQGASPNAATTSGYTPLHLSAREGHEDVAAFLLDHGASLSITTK
The assay is described as above. The note with it: both partners purified.

Sequence of AnkG R6-16 (O70511 whole entry, the tested form may be a part): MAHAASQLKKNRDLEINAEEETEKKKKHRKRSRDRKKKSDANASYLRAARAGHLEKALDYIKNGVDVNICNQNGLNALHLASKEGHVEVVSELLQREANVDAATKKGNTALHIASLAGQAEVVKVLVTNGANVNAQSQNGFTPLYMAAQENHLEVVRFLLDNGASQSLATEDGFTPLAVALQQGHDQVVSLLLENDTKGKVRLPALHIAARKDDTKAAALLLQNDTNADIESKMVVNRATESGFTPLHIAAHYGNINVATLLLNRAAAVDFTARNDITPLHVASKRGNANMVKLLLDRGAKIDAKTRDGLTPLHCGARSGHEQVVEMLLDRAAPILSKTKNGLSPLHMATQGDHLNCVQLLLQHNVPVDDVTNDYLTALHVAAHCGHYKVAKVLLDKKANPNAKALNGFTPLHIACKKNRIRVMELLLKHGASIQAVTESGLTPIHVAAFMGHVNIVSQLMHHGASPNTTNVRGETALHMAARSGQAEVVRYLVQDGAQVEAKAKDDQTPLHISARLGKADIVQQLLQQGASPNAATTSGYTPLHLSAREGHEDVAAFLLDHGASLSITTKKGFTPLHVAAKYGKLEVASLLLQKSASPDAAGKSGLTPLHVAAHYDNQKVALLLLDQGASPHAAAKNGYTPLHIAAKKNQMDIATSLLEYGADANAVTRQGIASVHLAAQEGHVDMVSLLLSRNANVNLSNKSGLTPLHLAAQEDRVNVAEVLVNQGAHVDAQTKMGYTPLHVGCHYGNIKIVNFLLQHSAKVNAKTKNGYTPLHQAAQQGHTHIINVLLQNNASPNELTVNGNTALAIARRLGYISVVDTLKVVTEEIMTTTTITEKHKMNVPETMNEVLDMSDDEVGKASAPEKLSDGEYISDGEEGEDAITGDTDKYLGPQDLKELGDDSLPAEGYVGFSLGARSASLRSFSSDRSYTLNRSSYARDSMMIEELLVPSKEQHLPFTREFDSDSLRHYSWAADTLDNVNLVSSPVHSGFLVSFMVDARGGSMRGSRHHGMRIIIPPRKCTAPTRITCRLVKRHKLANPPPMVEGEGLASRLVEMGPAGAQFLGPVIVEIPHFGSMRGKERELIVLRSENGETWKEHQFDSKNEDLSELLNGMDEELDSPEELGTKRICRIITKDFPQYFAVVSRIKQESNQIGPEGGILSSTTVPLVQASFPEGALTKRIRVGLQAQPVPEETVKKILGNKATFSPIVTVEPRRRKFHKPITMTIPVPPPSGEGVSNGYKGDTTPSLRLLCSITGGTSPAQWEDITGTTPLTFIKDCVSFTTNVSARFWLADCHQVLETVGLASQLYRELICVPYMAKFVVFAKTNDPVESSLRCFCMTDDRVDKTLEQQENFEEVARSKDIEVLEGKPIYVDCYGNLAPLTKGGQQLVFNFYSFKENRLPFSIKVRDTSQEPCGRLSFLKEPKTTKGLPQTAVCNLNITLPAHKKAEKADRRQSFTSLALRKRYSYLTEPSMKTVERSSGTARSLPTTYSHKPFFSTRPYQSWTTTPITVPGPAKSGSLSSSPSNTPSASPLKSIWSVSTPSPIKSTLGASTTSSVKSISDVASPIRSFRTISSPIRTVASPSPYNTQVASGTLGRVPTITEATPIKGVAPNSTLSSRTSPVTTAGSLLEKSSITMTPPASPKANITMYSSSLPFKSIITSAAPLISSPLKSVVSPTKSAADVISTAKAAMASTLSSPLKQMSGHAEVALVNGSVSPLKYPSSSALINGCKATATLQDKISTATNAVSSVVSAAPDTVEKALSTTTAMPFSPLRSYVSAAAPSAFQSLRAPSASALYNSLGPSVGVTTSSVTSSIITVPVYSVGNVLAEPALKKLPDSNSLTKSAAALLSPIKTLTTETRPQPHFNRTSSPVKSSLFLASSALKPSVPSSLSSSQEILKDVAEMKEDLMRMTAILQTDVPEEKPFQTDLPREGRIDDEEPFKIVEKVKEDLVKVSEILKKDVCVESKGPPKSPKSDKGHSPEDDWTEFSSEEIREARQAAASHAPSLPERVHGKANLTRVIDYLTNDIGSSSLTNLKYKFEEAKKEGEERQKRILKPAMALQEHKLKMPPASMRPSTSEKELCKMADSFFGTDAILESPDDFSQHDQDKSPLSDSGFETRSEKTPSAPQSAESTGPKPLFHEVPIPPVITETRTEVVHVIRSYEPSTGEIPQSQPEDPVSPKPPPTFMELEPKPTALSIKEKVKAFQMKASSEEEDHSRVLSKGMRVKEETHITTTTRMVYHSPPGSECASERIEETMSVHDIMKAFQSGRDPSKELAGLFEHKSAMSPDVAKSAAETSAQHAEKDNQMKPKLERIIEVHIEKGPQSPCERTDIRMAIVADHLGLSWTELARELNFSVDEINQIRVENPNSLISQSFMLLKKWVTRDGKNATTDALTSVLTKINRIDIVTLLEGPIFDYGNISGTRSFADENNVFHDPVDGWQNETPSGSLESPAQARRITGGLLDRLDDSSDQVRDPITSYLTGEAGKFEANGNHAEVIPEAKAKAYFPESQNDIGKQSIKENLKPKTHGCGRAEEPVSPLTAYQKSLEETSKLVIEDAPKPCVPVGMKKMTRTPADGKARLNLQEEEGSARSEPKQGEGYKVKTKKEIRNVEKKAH

B1: Nfasc ankyrin-binding domain (ABD, residues 1187-1214) (domain or fragment, UniProt P97685 1187-1214, looked up)
chain: SDDSLVDYGEGGEGQFNEDGSFIGQYTV
notes: also called Nfasc ABD; source: E. coli BL21 (DE3), purified (Ni-NTA, size-exclusion chromatography)
For the molecule B1, the Kd with AnkG R1-24 R318A, Q351A is 670 nM; with AnkG R6-16 it was 290 nM; in assay [1], about 220 nM; in assay [2], about 1200 nM.
